The record followed here is patent publication US20210253725A1 (BIONTECH, published 2021).

The target in assay [1] is T1, CD27 expressed on the cell surface (HT1080_CD27 cells) (human, UniProt P26842 20-260).
T1 sequence (looked up): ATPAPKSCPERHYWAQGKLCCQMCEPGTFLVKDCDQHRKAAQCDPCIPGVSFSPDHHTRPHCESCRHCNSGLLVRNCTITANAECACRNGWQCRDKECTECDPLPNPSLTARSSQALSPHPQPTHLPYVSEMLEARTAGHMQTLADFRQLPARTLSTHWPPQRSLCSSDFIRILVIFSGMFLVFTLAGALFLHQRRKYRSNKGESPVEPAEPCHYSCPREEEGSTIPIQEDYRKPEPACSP
Kind of assay: cell-based or functional assay.

For assay [2], the target named is T2, CD27 protein (His-tagged, Sino Biological Inc. 10039-H08B1) (human, UniProt P26842 20-192).
T2 construct: bought; coated onto ELISA plates; also called human CD27; recombinant protein; not shown: His tag
T2 sequence (looked up): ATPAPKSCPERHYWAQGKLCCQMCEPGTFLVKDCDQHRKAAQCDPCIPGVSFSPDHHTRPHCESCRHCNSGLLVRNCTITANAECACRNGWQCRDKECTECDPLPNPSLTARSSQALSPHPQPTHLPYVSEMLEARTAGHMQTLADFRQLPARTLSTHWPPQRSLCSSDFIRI
Kind of assay: ELISA on coated His-tagged CD27.

Assay [3] addresses T1, CD27 expressed on the cell surface …. Nature of the assay: cellular binding assay, HT1080_CD27 cells.
Also: test concentration or dose not given here.

B1: P018.S.06.A.D04 (antibody, V domains shown)
VH: QSLEESGGRLVKPDETLTLTCTVSGFDLSSYAVVWVRQAPGKGLEWIGYIYGGSGSTWYASWAKGRFTISKTSSTTVDLKMTSLTTEDTATYFCARAYDSGYIGNSFYAFDPWGPGTLVTVSS
VL: DIVMTQTPASVSAAVGGTVTIKCQASQTISSTLAWYQQKPGQPPKLLIYSASTLASGVSSRFKGSGSGPEFTLTISDLESADGGTYTCAGYGTVGVTAFGGGTEVVVR
notes: V regions on human Ig constant parts; also called AB27_103
As to B1, in assay [1], the “IL-8, cross-linked by F(ab')2 fragment [abs. corr.]” value (“IL-8, cross-linked” for short) came out at 1.06 abs. corr and the “IL-8 [abs. corr.]” value turned out to be 0.444 abs. corr. Further, the “ELISA [abs. corr.]” value in assay [2] amounted to 3.28 abs. corr. In assay [3], the “Cellular binding assay [RFU]” value stood at 394 RFU.

B2: P018.S.07.A.E03 (antibody, V domains shown)
VH: QSLEESGGRLVTPGTPLTLTCTVSGIDLSSYAMGWVRQAPGKGLELIGLIYASDRTHYATWAKGRFTISKSSTTVDLKATSLTTEDTATYFCGRYGRGSGGYYYGMDLWGPGTLVTVSS
VL: DVVMTQTPASVEAAVGGTVTIKCQASQSGDNYLSWYQQKSGQPPKLLIYLASTLASGVPSRFRGSRSGTEYTLTISDLESADAATYYCQNYCAGSGVCVGVAFGGGTEVVVK
notes: V regions on human Ig constant parts; also called AB27_125
Take B2: in assay [1], the “IL-8, cross-linked” value came out at 1.51 abs. corr and the “IL-8 [abs. corr.]” value turned out to be 0.123 abs. corr. Also, in assay [2], the “ELISA [abs. corr.]” value came to 3.28 abs. corr. Also, the “Cellular binding assay [RFU]” value in assay [3] is 227 RFU.

B3: P018.S.04.A.B03 (antibody, V domains shown)
VH: QSLEESGGRLVTPGTPLTLTCTASGFSLSSYDMSWVRQAPGKGLEWIGYIWSDGDTDYANWAIGRFTISKTSTTVDLKMTSPTTEDTATYFCARGYTNYDLWGQGTLVTVSS
VL: AAVLTQTPSSVSAAVGGTVTISCQSSQSLYSDPYLSWHQQKPGQPPKRLIYQASTLASGVSSRFKGSGSGTEYTLTISDVQSDDAATYFCQGTYYSDGWYSDFGGGTEVVVK
notes: V regions on human Ig constant parts; also called AB27_67
Consider B3, for which, in assay [1], the “IL-8, cross-linked” value stood at 1.97 abs. corr and the “IL-8 [abs. corr.]” value came out at 0.394 abs. corr. Further, the “ELISA [abs. corr.]” value in assay [2] turned out to be 3.28 abs. corr. Moreover, the “Cellular binding assay [RFU]” value in assay [3] turned out to be 338 RFU.

B4: P018.S.09.A.E03 (antibody, V domains shown)
VH: QSVEESGGRLVTPGTPLTLTCTASGFSLSSYYMGWVRQAPGKGLEWIGFITSGGSGSTYYASWAKGRFTISKTSTTVDLKMTSLTTEDTATYFCARYGDSFYWALDLWGQGTLVTVSS
VL: AQVLTQTPSSVSAAVGGTVTINCQSSQSVLNNDLSWYQQKPGQPPKLLIYAASTLASGVPSRFKGSGSGTQFTLTINVGQSDDAATYYCQGYFIDVNNPFGGGTEVVVK
notes: V regions on human Ig constant parts; also called AB27_154
For B4, in assay [1], the “IL-8, cross-linked” value came to 1.54 abs. corr and the “IL-8 [abs. corr.]” value was found to be 0.099 abs. corr. The “ELISA [abs. corr.]” value in assay [2] amounted to 3.27 abs. corr. Besides, the “Cellular binding assay [RFU]” value in assay [3] is 334 RFU.

B5: P018.S.06.A.H04 (antibody, V domains shown)
VH: QEKLEESGGGLVKPGGSLTLPCTASGFTLSSRYYMCWVRQAPGKGLEWIGCIYAGSLRTWYASWAKGRFTISKTSSTTVTLQMTSLTAADTATYFCARSPGVAASYPELWGPGTLVTVSS
VL: AQVLTQTPSSVAAAVGGTVSISCQSSQSVGNADNLAWYQQKPGQPPNLLIYYAASLASGVPSRFKGSGSGTQFTLTISDLESDDAATYYCGGGYYNSTDTFYTFGGGTEVVVK
notes: V regions on human Ig constant parts; also called AB27_111
For B5, in assay [1], the “IL-8, cross-linked” value came out at 1.69 abs. corr and the “IL-8 [abs. corr.]” value came out at 0.173 abs. corr. Besides, the “ELISA [abs. corr.]” value in assay [2] worked out at 3.23 abs. corr. Also, the “Cellular binding assay [RFU]” value in assay [3] stood at 331 RFU.

B6: P018.S.10.A.H02 (antibody, V domains shown)
VH: QSLEESGGRLVTPGGSLTLTCTVSGIDLSSYAMGWFRQAPGKGLEYIGIIYSSGSTWFANWVKGRFTISKTSTTVDLKMTSLTTEDTATYFCARYSAADHGDKFKLWGQGTLVTVSS
VL: AAVLTQTPSPVSAAVGGTVSISCQSSKNIFDNTRLSWFQQKPGQPPKQLIYGASTLASGVPSRFSGSGSGTQFTLTISGVQSDDAATYYCLGEYSSDSDTSFGGGTEVVVK
notes: V regions on human Ig constant parts; also called AB27_185
For B6, in assay [1], the “IL-8, cross-linked” value came to 2.1 abs. corr and the “IL-8 [abs. corr.]” value came out at 1.57 abs. corr. In assay [2], the “ELISA [abs. corr.]” value worked out at 3.25 abs. corr. Besides, the “Cellular binding assay [RFU]” value in assay [3] came to 144 RFU.

B7: P018.S.02.A.D04 (antibody, V domains shown)
VH: QEQLVESGGGLVQPEGSLTLTCTASALSFYSAWICWVRQAPGKGLKWIACIYAGGSRSTYYATWATGRFTISEASSTTVTLQMTSLTAADTATYFCARSLSADTYWNLWGPGTLVTVSS
VL: DVVMTQTPASVEAAVGGTVTIKCQASESISSWLAWYQQKPGQPPKLLIYRASTLESGVPSRFKGSGSGTEFTLTISDLESADAATYYCQNNGGGTSGYTFGGGTEVVVK
notes: V regions on human Ig constant parts; also called AB27_33
In the case of B7, in assay [1], the “IL-8, cross-linked” value turned out to be 1.37 abs. corr and the “IL-8 [abs. corr.]” value turned out to be 0.569 abs. corr. Moreover, the “ELISA [abs. corr.]” value in assay [2] was 3.27 abs. corr. Besides, the “Cellular binding assay [RFU]” value in assay [3] was 390 RFU.

B8: P018.S.02.A.B03 (antibody, V domains shown)
VH: QSLEESGGGLVKPGGTLTLTCTASGFSLSSTYMSWVRQAPGKGLEWIGDIYTDGSTYYASWVNGRFTISKTSTTVDLKMTSLTTEDTATYFCARGAAAAYDLWGQGTLVTVSS
VL: AYDMTQTPASVSAAVGGTVTIKCQASQNIYTNLAWYQQKPGQPPKLLIYGVSNLESGVPSRFKGSGSGTQFTLTISGVQSDDAATYYCQQGYSSTNVENAFGGGTEVVVK
notes: V regions on human Ig constant parts; also called AB27_30
B8: in assay [1], the “IL-8, cross-linked” value worked out at 1.16 abs. corr and the “IL-8 [abs. corr.]” value amounted to 0.12 abs. corr. Moreover, the “ELISA [abs. corr.]” value in assay [2] was 3.25 abs. corr. Besides, in assay [3], the “Cellular binding assay [RFU]” value was 332 RFU.

B9: P018.S.01.A.E04 (antibody, V domains shown)
VH: QEQLKESGGGLVTPGGTLTLTCTASGSDISNYGVSWVRQAPGKGLEWIGFINADGGGTWYASWVKGRFTISRTSTTVELKMTSLTTEHTATYFCATYGGGGGHNLWGPGTLVTVSS
VL: AQVLTQTPSSVSAAVGGTVTINCQSSQSVYDNNALAWYQQKPGQPPKLLLYSASRLASGVPSRFKGSGSGTQFTLTISDLESDDAATYYCAAYYGSGDIFAFGGGTEVVVE
notes: V regions on human Ig constant parts; also called AB27_16
For the molecule B9, in assay [1], the “IL-8, cross-linked” value came out at 1.15 abs. corr and the “IL-8 [abs. corr.]” value was determined as 0.264 abs. corr. The “ELISA [abs. corr.]” value in assay [2] was determined as 3.28 abs. corr. The “Cellular binding assay [RFU]” value in assay [3] stood at 295 RFU.

B10: P018.S.07.A.H05 (antibody, V domains shown)
VH: QSLEESGGRLVTPGTPLTLTCTASGFSLNSYYINWVRQAPGKGLEWIGFINGYDNTWYASWAKGRFTISRTSTTVDLRITSPTTEDTATYFCARDPGGASGTGRLDLWGQGTLVTVSS
VL: DIVMTQTPASVSAAVGGTVTINCQASQSISTALAWYQQKPGQRPKLLIYDASKLASGVPSRFKGNGSGTEFTLTISDLESADAATYYCQCTYYDAYDVGAFGGGTEVVVN
notes: V regions on human Ig constant parts; also called AB27_133
As for B10, in assay [1], the “IL-8, cross-linked” value amounted to 1.19 abs. corr and the “IL-8 [abs. corr.]” value is -0.16 abs. corr. Besides, the “ELISA [abs. corr.]” value in assay [2] was 3.25 abs. corr. Moreover, in assay [3], the “Cellular binding assay [RFU]” value worked out at 256 RFU.

B11: P018.S.10.A.B06 (antibody, V domains shown)
VH: QSVEESGGRLVTPGTPLTLTCTVSGFSLSSSHMCWVRQAPGKGLEWIGVINIGDIAYYASWAKGRFTISKTSTTVDLKMTSLTAADTATYFCARENAYGTGWDFDLWGQGTLVTVSS
VL: AYDMTQTPASVEVAVGGTVTIKCQASESIRNALAWYQQKPGQPPKQLIYSASTLASGVPSRFKGSGSGTEFTLTISGVQSDDAATYYCQQGFSLRNVDNAFGGGTEVVVK
notes: V regions on human Ig constant parts; also called AB27_169
Take B11: in assay [1], the “IL-8, cross-linked” value is 1.46 abs. corr and the “IL-8 [abs. corr.]” value turned out to be 0.455 abs. corr. In assay [2], the “ELISA [abs. corr.]” value was 3.25 abs. corr. The “Cellular binding assay [RFU]” value in assay [3] was 308 RFU.

B12: P018.S.01.A.A04 (antibody, V domains shown)
VH: QSVEESGGRLVTPGTPLTLTCTVSGFSLSRYWVSWVRQAPGKGLEAIGVIDNGDTAYYASWAKGRFTISKTSSITVDLKMTSLTTEDTATYFCTREGADHSGQDLWGQGTLVTVSS
VL: AAVLTQTPSPVSAAVGGTVTINCQASQSVISNNDLSWYQQKPGQPPKLLIYRASNLASGVPSRFEGSGSGTQFTLTISDLESEDAATYYCQGGYAGIVDRRPFGGGTEVVVK
notes: V regions on human Ig constant parts; also called AB27_1
For the molecule B12, in assay [1], the “IL-8, cross-linked” value was determined as 1.03 abs. corr and the “IL-8 [abs. corr.]” value was 0.236 abs. corr. In assay [2], the “ELISA [abs. corr.]” value is 3.24 abs. corr. Further, in assay [3], the “Cellular binding assay [RFU]” value is 315 RFU.

B13: P018.S.01.A.C02 (antibody, V domains shown)
VH: QSLEESGGDLVQPGASLTLTCTASGLDFISSYMCWVRQAPGKGLEWIGCIAPGGGNTYYATWAKGRFTFSETSSTTVTLQMTSLTAADTATYFCARTYPSIWYFGLWGPGTLVTVSS
VL: DVVMTQTPASVSEPVGGTVTIKCQASQSIGSNLGWYQQKPGQPPKLLIYGASTLASGVSSRFKGSGSGTEFTLTMSDLESADAATYYCQSFYAASSAFGGGTEVVVK
notes: V regions on human Ig constant parts; also called AB27_7
Consider B13, for which, in assay [1], the “IL-8, cross-linked” value was 1.48 abs. corr and the “IL-8 [abs. corr.]” value turned out to be 0.395 abs. corr. Besides, the “ELISA [abs. corr.]” value in assay [2] stood at 3.25 abs. corr. Also, in assay [3], the “Cellular binding assay [RFU]” value amounted to 324 RFU.

B14: P018.S.01.A.C04 (antibody, V domains shown)
VH: QSLEESGGGLVTPGGTLTLTCTASGSDISTYHMGWFRQAPGKGLEYIGFINTGGTTWYASWAKGRFTVSRTSTTVDLLMTSPTTEDTATYFCARYDAGHAFFDLWGPGTLVTVSS
VL: AVVMTQTASPVSAAVGGTVTIKCQASQSIGSSYFSWYQQKPGQPPKLLIYSASTLASGVSSRFKGSGSGTEYTLTISDLESADAATYYCQGYDGDTTTAFFAFGGGTEVVVE
notes: V regions on human Ig constant parts; also called AB27_8
In the case of B14, in assay [1], the “IL-8, cross-linked” value worked out at 1.08 abs. corr and the “IL-8 [abs. corr.]” value stood at 0.383 abs. corr. For the same molecule, the “ELISA [abs. corr.]” value in assay [2] was found to be 3.24 abs. corr. The “Cellular binding assay [RFU]” value in assay [3] turned out to be 368 RFU.
